Measured values taken from the Human Domainome abundance scans (Beltran et al. 2025).
± gives the uncertainty stated by the source.

B1: Double-stranded RNA-specific adenosine deaminase, residues 296 to 358; numbered along this chain, P55265 (parent)
chain: MAEIKEKICDYLFNVSDSSALNLAKNIGLTKARDINAVLIDMERQGDVYRQGTTPPIWHLTDK

Variants of: B1
Experiment: abundance fitness (aPCA) (normalised: wild type 0, dead -1); higher = more abundant; growth selection in yeast, the domain comes from the species named
Details: Homo sapiens

Abundance fitness of substitutions, site by site:
D34: Y -0.694 ± 0.11
I35: A -0.326 ± 0.048 | C -0.348 ± 0.056 | D -0.225 ± 0.1 | F -0.681 ± 0.088 | G -0.627 ± 0.075 | H -0.556 ± 0.073 | K -0.323 ± 0.22 | L -0.279 ± 0.058 | M -0.523 ± 0.075 | P -0.257 ± 0.061 | Q -0.348 ± 0.13 | S -0.343 ± 0.046 | T -0.217 ± 0.075 | V -0.034 ± 0.045 | W -1.1 ± 0.38 | Y -0.743 ± 0.091
N36: A -0.497 ± 0.072 | C -0.397 ± 0.081 | D 0.131 ± 0.091 | E 0.406 ± 0.055 | F -0.455 ± 0.098 | G -0.366 ± 0.048 | H 0.081 ± 0.064 | I -0.438 ± 0.11 | K -0.098 ± 0.08 | L -0.282 ± 0.049 | M -0.184 ± 0.048 | P -0.49 ± 0.072 | Q -0.156 ± 0.074 | R -0.38 ± 0.046 | S -0.202 ± 0.054 | T -0.011 ± 0.058 | V -0.428 ± 0.052 | W -0.154 ± 0.07 | Y -0.232 ± 0.077
A37: C -0.417 ± 0.072 | D -0.101 ± 0.079 | E -0.024 ± 0.056 | G -0.332 ± 0.043 | H 0.039 ± 0.066 | L -0.392 ± 0.061 | M -0.386 ± 0.071 | N -0.247 ± 0.097 | P -0.145 ± 0.062 | Q -0.11 ± 0.06 | R -0.054 ± 0.04 | S -0.025 ± 0.054 | T -0.173 ± 0.068 | W -0.453 ± 0.067 | Y -0.457 ± 0.12
V38: A 0.343 ± 0.061 | C 0.12 ± 0.085 | D -0.254 ± 0.17 | E -0.13 ± 0.06 | F -0.952 ± 0.21 | G -0.128 ± 0.06 | H -0.31 ± 0.11 | I 0.035 ± 0.07 | K -0.387 ± 0.067 | L -0.253 ± 0.038 | M -0.488 ± 0.075 | N -0.195 ± 0.11 | P -0.24 ± 0.056 | Q -0.276 ± 0.075 | R -0.528 ± 0.049 | S -0.316 ± 0.057 | T -0.11 ± 0.057 | W -0.739 ± 0.081 | Y -1.27 ± 0.39
L39: A -0.148 ± 0.059 | C -0.528 ± 0.1 | D -0.125 ± 0.086 | F -0.812 ± 0.09 | G -0.176 ± 0.05 | H -0.44 ± 0.13 | I -0.756 ± 0.094 | K -0.096 ± 0.059 | M -0.294 ± 0.059 | N -0.393 ± 0.089 | P -0.385 ± 0.078 | Q -0.244 ± 0.066 | R -0.365 ± 0.055 | S -0.265 ± 0.052 | T -0.461 ± 0.064 | V -0.589 ± 0.08 | W -0.966 ± 0.13 | Y -0.678 ± 0.087
I40: A 0.083 ± 0.056 | C -0.153 ± 0.077 | D -0.093 ± 0.062 | F -0.165 ± 0.11 | G -0.265 ± 0.055 | H -0.218 ± 0.071 | K -0.025 ± 0.052 | L 0.128 ± 0.039 | M 0.122 ± 0.058 | N 0.075 ± 0.052 | P -0.387 ± 0.07 | Q 0.159 ± 0.068 | R -0.054 ± 0.048 | S 0.117 ± 0.041 | T -0.065 ± 0.074 | V -0.049 ± 0.054 | W -0.388 ± 0.066 | Y 0.043 ± 0.033
D41: A -0.315 ± 0.062 | C -0.822 ± 0.15 | E 0.223 ± 0.13 | F -1.34 ± 0.31 | G -0.348 ± 0.068 | H -0.754 ± 0.15 | L -0.99 ± 0.11 | M -0.539 ± 0.15 | N -0.514 ± 0.12 | P -0.421 ± 0.076 | R -0.73 ± 0.065 | S -0.501 ± 0.093 | T -0.445 ± 0.071 | V -1.14 ± 0.2 | W -1.12 ± 0.19 | Y -1.06 ± 0.24
M42: A -0.479 ± 0.056 | C -0.742 ± 0.091 | D -0.551 ± 0.082 | E -0.22 ± 0.078 | F -0.965 ± 0.14 | G -0.485 ± 0.062 | I -1.03 ± 0.13 | K -0.303 ± 0.08 | L -0.369 ± 0.047 | N -0.412 ± 0.12 | P -0.502 ± 0.059 | Q -0.335 ± 0.057 | R -0.629 ± 0.051 | S -0.613 ± 0.061 | T -0.636 ± 0.074 | V -0.774 ± 0.079 | W -0.795 ± 0.11
E43: A -0.66 ± 0.057 | D -0.665 ± 0.084 | F -0.748 ± 0.14 | G -0.508 ± 0.093 | H -0.798 ± 0.2 | I -1.13 ± 0.19 | L -0.93 ± 0.078 | M -0.848 ± 0.12 | N -0.697 ± 0.12 | P -0.729 ± 0.077 | Q -0.447 ± 0.093 | R -0.927 ± 0.067 | S -0.841 ± 0.08 | T -1.07 ± 0.14 | V -0.873 ± 0.076 | Y -0.725 ± 0.084
R44: A 0.079 ± 0.05 | C -0.6 ± 0.1 | D -0.175 ± 0.13 | E -0.126 ± 0.057 | G -0.334 ± 0.05 | H -0.274 ± 0.13 | I -0.26 ± 0.092 | K 0.067 ± 0.064 | L -0.373 ± 0.055 | M -0.27 ± 0.061 | N -0.056 ± 0.094 | Q 0.037 ± 0.061 | S -0.173 ± 0.046 | T -0.043 ± 0.091 | W -0.705 ± 0.14 | Y -0.614 ± 0.13
Q45: A 0.145 ± 0.049 | C -0.053 ± 0.058 | D 0.17 ± 0.06 | E 0.022 ± 0.15 | F -0.729 ± 0.082 | G -0.778 ± 0.12 | H -0.024 ± 0.055 | I -0.495 ± 0.065 | K -0.492 ± 0.14 | L -0.524 ± 0.068 | N 0.033 ± 0.049 | P -0.912 ± 0.14 | R -0.33 ± 0.055 | S 0.022 ± 0.038 | T -0.097 ± 0.062 | V -0.075 ± 0.058 | Y -0.637 ± 0.081
G46: A -0.844 ± 0.087 | C -0.998 ± 0.12 | E -0.66 ± 0.087 | F -1.05 ± 0.22 | I -1.03 ± 0.21 | K -0.448 ± 0.082 | L -0.974 ± 0.088 | M -0.498 ± 0.12 | N -0.827 ± 0.15 | P -0.778 ± 0.1 | Q -0.652 ± 0.12 | R -0.902 ± 0.087 | S -0.618 ± 0.072 | T -0.856 ± 0.12 | V -0.613 ± 0.073 | W -1.15 ± 0.18 | Y -1.06 ± 0.24
D47: A -0.117 ± 0.052 | C -0.096 ± 0.12 | E 0.35 ± 0.049 | F -0.177 ± 0.086 | G -0.881 ± 0.13 | H -0.123 ± 0.071 | K 0.024 ± 0.07 | L 0.297 ± 0.045 | M 0.182 ± 0.054 | N -0.322 ± 0.094 | Q 0.122 ± 0.058 | R 0.046 ± 0.052 | S -0.114 ± 0.051 | T 0.205 ± 0.055 | V 0.288 ± 0.047 | W -0.234 ± 0.069 | Y -0.068 ± 0.06
V48: A -0.284 ± 0.055 | C -0.389 ± 0.082 | D -0.335 ± 0.087 | E -0.23 ± 0.089 | F -0.927 ± 0.17 | H -0.574 ± 0.095 | I -0.139 ± 0.065 | K -0.701 ± 0.11 | N -0.286 ± 0.091 | P -0.507 ± 0.075 | Q -0.743 ± 0.11 | S -0.585 ± 0.073 | T -0.563 ± 0.069 | W -0.692 ± 0.085 | Y -0.862 ± 0.17
Y49: C 0.078 ± 0.059 | E 0.259 ± 0.057 | F -0.167 ± 0.064 | G -0.076 ± 0.055 | H -0.074 ± 0.076 | I 0.053 ± 0.067 | K 0.161 ± 0.064 | L -0.27 ± 0.044 | M 0.003 ± 0.062 | N -0.34 ± 0.084 | P -0.519 ± 0.071 | Q 0.051 ± 0.11 | R 0.007 ± 0.045 | S 0.111 ± 0.046 | T 0.135 ± 0.048 | V 0.177 ± 0.052 | W -0.044 ± 0.071
R50: A -0.238 ± 0.061 | D -0.761 ± 0.14 | E -0.392 ± 0.073 | F -0.601 ± 0.12 | G -0.453 ± 0.053 | H -0.274 ± 0.075 | I -0.798 ± 0.11 | K 0.12 ± 0.1 | L -0.684 ± 0.065 | M -0.555 ± 0.1 | N -0.379 ± 0.073 | Q 0.036 ± 0.083 | S -0.019 ± 0.044 | T -0.406 ± 0.078 | V -0.381 ± 0.059 | W -0.722 ± 0.13 | Y -0.985 ± 0.19
Q51: A -0.162 ± 0.049 | C 0.051 ± 0.046 | D 0.22 ± 0.072 | E 0.176 ± 0.084 | F -0.658 ± 0.095 | G -0.215 ± 0.057 | H -0.094 ± 0.077 | I 0.088 ± 0.051 | K 0.053 ± 0.054 | N -0.051 ± 0.084 | P -0.861 ± 0.1 | S 0.401 ± 0.045 | T 0.494 ± 0.052 | V 0.208 ± 0.046 | W -0.407 ± 0.067
G52: A -0.342 ± 0.055 | C -0.525 ± 0.056 | D -0.105 ± 0.054 | E -0.12 ± 0.067 | F -0.901 ± 0.14 | H -0.234 ± 0.06 | I -0.779 ± 0.12 | K -0.367 ± 0.1 | L -0.764 ± 0.065 | M -0.812 ± 0.16 | N -0.072 ± 0.069 | R -0.489 ± 0.064 | S -0.387 ± 0.063 | T -0.659 ± 0.081 | V -0.638 ± 0.062 | W -0.518 ± 0.086 | Y -0.765 ± 0.14
T53: A -0.033 ± 0.48 | I -0.744 ± 0.17 | R 0.238 ± 0.21
T54: A -0.04 ± 0.065 | C -0.148 ± 0.087 | E 0.093 ± 0.063 | F -0.429 ± 0.12 | G -0.32 ± 0.05 | H 0.045 ± 0.045 | K -0.024 ± 0.055 | L -0.448 ± 0.05 | N 0.306 ± 0.064 | P -0.722 ± 0.1 | R -0.18 ± 0.046 | S 0.127 ± 0.05 | V -0.204 ± 0.053 | W -0.513 ± 0.077 | Y -0.386 ± 0.081
P55: A -0.243 ± 0.059 | C -0.344 ± 0.1 | D 0.06 ± 0.07 | E -0.043 ± 0.058 | F -0.396 ± 0.082 | G -0.434 ± 0.05 | H -0.435 ± 0.087 | I -0.547 ± 0.057 | K -0.49 ± 0.096 | L -0.594 ± 0.068 | M -0.632 ± 0.12 | N -0.006 ± 0.073 | Q -0.486 ± 0.086
